Measured values taken from US20150344570A1 (published 2015).

T1: FcγRIIa R (human, UniProt P12318 34-217)
T1 construct: extracellular domain; also called FcgRIIa R type; 2aR
T1 sequence (looked up): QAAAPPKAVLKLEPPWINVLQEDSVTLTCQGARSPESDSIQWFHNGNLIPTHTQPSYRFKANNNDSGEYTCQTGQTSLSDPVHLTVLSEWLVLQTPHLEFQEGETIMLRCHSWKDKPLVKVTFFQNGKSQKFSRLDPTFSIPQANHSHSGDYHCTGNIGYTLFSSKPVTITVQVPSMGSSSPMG

T2: FcγRIIb (human, UniProt P31994 43-217)
T2 construct: extracellular domain; also called FcgRIIb; 2b
T2 sequence (looked up): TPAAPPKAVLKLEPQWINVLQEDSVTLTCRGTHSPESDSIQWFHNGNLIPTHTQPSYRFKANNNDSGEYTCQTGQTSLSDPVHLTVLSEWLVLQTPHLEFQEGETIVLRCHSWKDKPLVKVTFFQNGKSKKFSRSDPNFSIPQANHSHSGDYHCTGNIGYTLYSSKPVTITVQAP

B1: GpH7-A5/GpH7-B3 variant L328_11K/GpL16-k0 (antibody, human IgG1, kappa)
heavy 1: not shown
heavy 2: not shown
light: DIVMTQSPLSLPVTPGEPASISCQASESLVHSNRNTYLHWYLQKPGQSPQLLIYKVSNRFSGVPDRFSGSGSGTDFTLKISRVEAEDVGVYYCSQNTHVPPTFGQGTKVEIERTVAAPSVFIFPPSDEQLKSGTASVVCLLNNFYPREAKVQWKVDNALQSGNSQESVTEQDSKDSTYSLSSTLTLSKADYEKHKVYACEVTHQGLSSPVTKSFNRGEC
notes: He Ab; mutation in the GpH7-B3 chain only; also called He Ab
B2: GpH7-A5/GpH7-B3 variant E269_01G/GpL16-k0 (antibody, human IgG1, kappa)
heavy 1: not shown
heavy 2: not shown
light: B1 light
notes: heterodimerized anti-glypican-3 IgG1; alteration in one H chain only; also called He Ab
B3: GpH7-A5/GpH7-B3 variant E269_02A/GpL16-k0 (antibody, human IgG1, kappa)
heavy 1: not shown
heavy 2: not shown
light: B1 light
notes: as for B2
B4: GpH7-A5/GpH7-B3 variant E269_07I/GpL16-k0 (antibody, human IgG1, kappa)
heavy 1: not shown
heavy 2: not shown
light: B1 light
notes: as for B2
B5: GpH7-A5/GpH7-B3 variant D265_19Q/GpL16-k0 (antibody, human IgG1, kappa)
heavy 1: not shown
heavy 2: not shown
light: B1 light
notes: as for B2
B6: GpH7-A5/GpH7-B3 variant E269_12R/GpL16-k0 (antibody, human IgG1, kappa)
heavy 1: not shown
heavy 2: not shown
light: B1 light
notes: as for B2
B7: GpH7-A5/GpH7-B3 variant Y296_07I/GpL16-k0 (antibody, human IgG1, kappa)
heavy 1: not shown
heavy 2: not shown
light: B1 light
notes: Alteration in one H chain only; also called He Ab Y296_07I
B8: GpH7-A5/GpH7-B3 variant Y300_16H/GpL16-k0 (antibody, human IgG1, kappa)
heavy 1: not shown
heavy 2: not shown
light: B1 light
notes: Alteration in one H chain only; also called He Ab Y300_16H
B9: GpH7-A5/GpH7-B3 variant E269_18N/GpL16-k0 (antibody, human IgG1, kappa)
heavy 1: not shown
heavy 2: not shown
light: B1 light
notes: as for B2
B10: GpH7-A5/GpH7-B3 variant D265_10E/GpL16-k0 (antibody, human IgG1, kappa)
heavy 1: not shown
heavy 2: not shown
light: B1 light
notes: as for B2
B11: GpH7-A5/GpH7-B3 variant D265_18N/GpL16-k0 (antibody, human IgG1, kappa)
heavy 1: not shown
heavy 2: not shown
light: B1 light
notes: as for B2
B12: GpH7-A5/GpH7-B3 variant E269_14T/GpL16-k0 (antibody, human IgG1, kappa)
heavy 1: not shown
heavy 2: not shown
light: B1 light
notes: as for B2
B13: GpH7-A5/GpH7-B3 variant D265_14T/GpL16-k0 (antibody, human IgG1, kappa)
heavy 1: not shown
heavy 2: not shown
light: B1 light
notes: as for B2
B14: GpH7-A5/GpH7-B3 variant D265_12R/GpL16-k0 (antibody, human IgG1, kappa)
heavy 1: not shown
heavy 2: not shown
light: B1 light
notes: as for B2
B15: GpH7-A5/GpH7-B3 variant E269_15Y/GpL16-k0 (antibody, human IgG1, kappa)
heavy 1: not shown
heavy 2: not shown
light: B1 light
notes: as for B2
B16: GpH7-A5/GpH7-B3 variant Y296_03V/GpL16-k0 (antibody, human IgG1, kappa)
heavy 1: not shown
heavy 2: not shown
light: B1 light
notes: Alteration in one H chain only; also called He Ab Y296_03V
B17: GpH7-A5/GpH7-B3 variant E269_13S/GpL16-k0 (antibody, human IgG1, kappa)
heavy 1: not shown
heavy 2: not shown
light: B1 light
notes: as for B2
B18: GpH7-A5/GpH7-B3 variant D265_16H/GpL16-k0 (antibody, human IgG1, kappa)
heavy 1: not shown
heavy 2: not shown
light: B1 light
notes: as for B2
B19: GpH7-A5/GpH7-B3 variant D265_11K/GpL16-k0 (antibody, human IgG1, kappa)
heavy 1: not shown
heavy 2: not shown
light: B1 light
notes: as for B2
B20: GpH7-A5/GpH7-B3 variant Y296_08L/GpL16-k0 (antibody, human IgG1, kappa)
heavy 1: not shown
heavy 2: not shown
light: B1 light
notes: Alteration in one H chain only; also called He Ab Y296_08L
B21: GpH7-A5/GpH7-B3 variant Y296_02A/GpL16-k0 (antibody, human IgG1, kappa)
heavy 1: not shown
heavy 2: not shown
light: B1 light
notes: Alteration in one H chain only; also called He Ab Y296_02A
B22: GpH7-A5/GpH7-B3 variant E269_08L/GpL16-k0 (antibody, human IgG1, kappa)
heavy 1: not shown
heavy 2: not shown
light: B1 light
notes: as for B2
B23: GpH7-A5/GpH7-B3 variant Y300_07I/GpL16-k0 (antibody, human IgG1, kappa)
heavy 1: not shown
heavy 2: not shown
light: B1 light
notes: Alteration in one H chain only; also called He Ab Y300_07I
B24: GpH7-A5/GpH7-B3 variant S337_16H/GpL16-k0 (antibody, human IgG1, kappa)
heavy 1: not shown
heavy 2: not shown
light: B1 light
notes: Alteration in one H chain only; also called He Ab S337_16H
B25: GpH7-A5/GpH7-B3 variant E269_11K/GpL16-k0 (antibody, human IgG1, kappa)
heavy 1: not shown
heavy 2: not shown
light: B1 light
notes: as for B2
B26: GpH7-A5/GpH7-B3 variant E269_16H/GpL16-k0 (antibody, human IgG1, kappa)
heavy 1: not shown
heavy 2: not shown
light: B1 light
notes: as for B2
B27: GpH7-A5/GpH7-B3 variant D265_13S/GpL16-k0 (antibody, human IgG1, kappa)
heavy 1: not shown
heavy 2: not shown
light: B1 light
notes: as for B2
B28: GpH7-A5/GpH7-B3 variant L328_12R/GpL16-k0 (antibody, human IgG1, kappa)
heavy 1: not shown
heavy 2: not shown
light: B1 light
notes: as for B1
B29: GpH7-A5/GpH7-B3 variant E269_04F/GpL16-k0 (antibody, human IgG1, kappa)
heavy 1: not shown
heavy 2: not shown
light: B1 light
notes: as for B2
B30: GpH7-A5/GpH7-B3 variant E269_03V/GpL16-k0 (antibody, human IgG1, kappa)
heavy 1: not shown
heavy 2: not shown
light: B1 light
notes: as for B2
B31: GpH7-A5/GpH7-B3 variant S337_18N/GpL16-k0 (antibody, human IgG1, kappa)
heavy 1: not shown
heavy 2: not shown
light: B1 light
notes: Alteration in one H chain only; also called He Ab S337_18N
B32: GpH7-A5/GpH7-B3 variant E269_06M/GpL16-k0 (antibody, human IgG1, kappa)
heavy 1: not shown
heavy 2: not shown
light: B1 light
notes: as for B2
B33: GpH7-A5/GpH7-B3 variant T335_13S/GpL16-k0 (antibody, human IgG1, kappa)
heavy 1: not shown
heavy 2: not shown
light: B1 light
notes: Alteration in one H chain only; also called He Ab T335_13S
B34: GpH7-A5/GpH7-B3 variant T335_01G/GpL16-k0 (antibody, human IgG1, kappa)
heavy 1: not shown
heavy 2: not shown
light: B1 light
notes: Alteration in one H chain only; also called He Ab T335_01G
B35: GpH7-A5/GpH7-B3 variant T335_02A/GpL16-k0 (antibody, human IgG1, kappa)
heavy 1: not shown
heavy 2: not shown
light: B1 light
notes: Alteration in one H chain only; also called He Ab T335_02A

Experiments:
[1] = biological target: T3, FcγRIa (human, UniProt P12314 16-292); test: ratio of He/Con_1a to He/Con_2b (FcγRIa over FcγRIIb), SPR
T3 construct: extracellular domain; also called FcgRI; CD64
Description: (§1) The heterodimerized antibodies He Abs in which one of the H chains was introduced with an alteration were assayed for their binding activities to each activating FcγR and inhibitory FcγR according to the method described in Example 4. […] The activating FcγRs in FIGS. 26, 27, 28, and 29 are FcγRIa, FcγRIIa (R), FcγRIIa (H), and FcγRIIIa, respectively.
(§2) Analysis of interaction between objective antibody and the FcγR was carried out using Biacore T100 (GE Healthcare). HBS-EP+ (GE Healthcare) was used as the running buffer, and the measurement temperature was set to 25° C. Chips produced by immobilizing the antigen peptide by the amine coupling method to a Series S Sencor Chip CM5 (GE Healthcare), or alternatively, chips produced by allowing preliminarily biotinylated antigen peptides to interact with and immobilize onto a Series S Sensor Chip SA (certified) (GE Healthcare) were used. Antibodies of interest were captured onto an antigen peptide-immobilized chip, and allowed to interact to each FcγR diluted with running buffer. To regenerate and repeatedly use the chip, the antibodies captured on the chip were washed off by reacting 10 mM glycine-HCl, pH 1.5.
T3 sequence (P12314 16-292): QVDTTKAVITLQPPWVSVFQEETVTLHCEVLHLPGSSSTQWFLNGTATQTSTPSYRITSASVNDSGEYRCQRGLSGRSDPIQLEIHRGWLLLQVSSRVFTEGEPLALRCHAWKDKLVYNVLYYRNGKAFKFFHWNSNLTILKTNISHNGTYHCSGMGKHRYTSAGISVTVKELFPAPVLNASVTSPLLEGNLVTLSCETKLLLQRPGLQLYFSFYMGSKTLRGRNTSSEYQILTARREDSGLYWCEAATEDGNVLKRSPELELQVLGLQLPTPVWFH

[2] = biological target: T3, FcγRIa; test: SPR (Biacore), captured antibody, soluble FcγR; relative to GpH7-A5/GpH7-B3/GpL16-k0 = 100
Description: as §1, §2

[3] = biological target: T1, FcγRIIa R; test: SPR (Biacore); He/Con_2aR divided by He/Con_2b (FcγRIIa R over FcγRIIb)
[4] = biological target: T1, FcγRIIa R; test: SPR (Biacore), captured antibody, FcγR as analyte; relative binding, control GpH7-A5/GpH7-B3/GpL16-k0 = 100
Description: as §1, §2

[5] = biological target: T2, FcγRIIb; test: as above
Description: as §1, §2

[6] = biological target: T4, FcγRIa (human, UniProt P12314 16-292); test: SPR (Biacore), relative binding; control HeCon Ab GpH7-A5/GpH7-B3/GpL16-k0
T4 construct: extracellular domain; also called FcgRI; FcgRIa; not shown: His tag attached to the C terminus
T4 sequence (P12314 16-292): as above

Binder	He_1a/2b (Ia/IIb) [1]	He/Con_1a [2]	He_2aR/2b (IIaR/IIb) [3] [ratio]	He/Con_2aR [4] [control = 100]	He/Con_2b [5] [control = 100]	He/Con_1a [6]
B1	10.5	79.2 % of control				
B2			1.27	65.3	51.5	
B3			1.31	65.3	49.9	
B4			1.34	58.8	43.9	
B5			1.64	54.8	33.4	
B6			1.39	35	25.2	
B7						104 % of control (=100)
B8						111 % of control (=100)
B9			1.32	59.2	44.8	
B10			1.52	58.2	38.2	
B11			2.02	12.4	6.1	
B12			1.3	66	50.6	
B13			1.61	25.8	16	
B14			2.15	32.2	15	
B15			1.29	57.6	44.7	
B16						104 % of control (=100)
B17			1.28	61.2	47.8	
B18			1.51	58	38.3	

Binder	He_1a/2b (Ia/IIb) [1]	He/Con_1a [2]	He_2aR/2b (IIaR/IIb) [3] [ratio]	He/Con_2aR [4] [control = 100]	He/Con_2b [5] [control = 100]	He/Con_1a [6]
B19			2.26	33.7	14.9	
B20						104 % of control (=100)
B21						103 % of control (=100)
B22			1.33	57.2	42.9	
B23						108 % of control (=100)
B24						105 % of control (=100)
B25			2.14	38.1	17.8	
B26			1.32	50.7	38.5	
B27			1.81	20.5	11.3	
B28	8.51	78.6 % of control				
B29			1.29	58.2	45	
B30			1.3	58.8	45.1	
B31						105 % of control (=100)
B32			1.32	61.7	46.7	
B33						105 % of control (=100)
B34						104 % of control (=100)
B35						103 % of control (=100)
